# Assay results: PMC4940744, “Iron(II) supramolecular helicates interfere with the HIV-1 Tat–TAR RNA interaction critical for viral replication”
# T1: ADP-1 polypeptide (Tat RNA-binding region) (HIV-1, UniProt P04608 37-72)
# T1 chain: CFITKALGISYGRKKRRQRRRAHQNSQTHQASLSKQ
# Target: T1, ADP-1 polypeptide (Tat RNA-binding …)
# Test: EMSA; no helicate; EMSA: 50 mM Tris-HCl pH 8.0, 50 mM KCl, 100 mM DTT, 0.05% Triton X-100, 10 min on ice; 15% PAA gel, 0.5x TB, 5 C
# Conditions: label: 5'-32P; hairpin with 3-nt UCU bulge
binder,measurement,value
GGCCAGAUCUGAGCCUGGGAGCUCUCUGGCC (structured_RNA) [TAR RNA],binding result,binds
